Test results as given in publication PMC11205783, “HigA2 (Rv2021c) Is a Transcriptional Regulator with Multiple Regulatory Targets in Mycobacterium tuberculosis”.

T1: HigA2 (Mycobacterium tuberculosis H37Rv, UniProt O53467 1-101)
T1 sequence: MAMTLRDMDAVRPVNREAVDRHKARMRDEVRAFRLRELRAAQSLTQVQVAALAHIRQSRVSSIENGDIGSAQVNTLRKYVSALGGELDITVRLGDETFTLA

B1: seq6 m5 (dsDNA)
DNA 1: CTGCTCAAAGATCGACTAGTATATCACAGGTCCGTGATATGACGTATACCTTTGGTGCA
DNA 2: TGCACCAAAGGTATACGTCATATCACGGACCTGTGATATACTAGTCGATCTTTGAGCAG
B2: seq6 m6 (dsDNA)
DNA 1: CGCTGCTCTTACCCGGAGGAGCATCACCCTTGTGTGATCACGCGTATCGCGCTACTCTG
DNA 2: CAGAGTAGCGCGATACGCGTGATCACACAAGGGTGATGCTCCTCCGGGTAAGAGCAGCG
B3: seq6 m4 (dsDNA)
DNA 1: CGCTGCTCTTACCCGGAGGAATATCACAGGTCCGTGATATCGCGTATCGCGCTACTCTG
DNA 2: CAGAGTAGCGCGATACGCGATATCACGGACCTGTGATATTCCTCCGGGTAAGAGCAGCG

Molecular target: T1, HigA2
Experiment: EMSA; EMSA: 20 mM Tris-HCl, 150 mM NaCl, pH 8.0, 37 °C, 5 min, HigA2 1 uM (titrated in Fig 4); agarose or native PAGE. Pull-down: streptavidin beads, 4 °C, PBS washes
Conditions: protein: recombinant; tags: C-terminal 6xHis; chain copies: 2

Row | Binder | binding result
1 | B1 | binds
2 | B2 | binds
3 | B3 | binds
